What all share (settings): both partners purified
Assay [1] concerns the target T1, human Rab7 (residue 2-195) Q67L Δ73, GTP-bound (human, UniProt P51149 2-195, Q67L | Δ73).
T1 construct: Ras-related protein Rab-7a, human, UniProt P51149, residues 2-195, Q67L and deletion of Leu73 in switch II; 0.5 mM MgCl2 and GTP were added before crystallisation; also called Rab7 Q67L Δ73; Rab7 (Q67L, Δ73); source: E. coli BL21(DE3), purified (Ni-NTA, SEC)
Description: crystal structure; ORP1 ANK (5-152) with GTP- and Mg2+-bound Rab7 (2-195) Q67L Δ73; 2.1 Å; two heterodimers in the asymmetric unit.

Assay [2] concerns the target T2, human Rab7 (residue 2-195) Q67L, GTP-loaded (human, UniProt P51149 2-195, Q67L).
T2 construct: Ras-related protein Rab-7a, human, UniProt P51149, residues 2-195, dominant active mutant Q67L; Loaded with 0.5 mM GTP for ITC; also called Rab7 Q67L; dominant active Rab7; source: E. coli BL21(DE3), purified (Ni-NTA, SEC)
Description: ITC; 20 °C; 20 mM Tris-HCl pH 7.5, 150 mM NaCl; 1 mM ORP1 ANK in the syringe, 0.1 mM Rab7 or Rab7-RILP in the cell; Rab7 Q67L with 0.5 mM GTP, Rab7 T22N with 0.5 mM GDP; independent binding model. (In general: Isothermal titration calorimetry measures the heat released or taken up as one component is titrated into another.)

The target of assay [3] is T3, human Rab7 (residue 2-195) T22N, GDP-loaded (human, UniProt P51149 2-195, T22N).
T3 construct: Ras-related protein Rab-7a, human, UniProt P51149, residues 2-195, dominant negative mutant T22N; Loaded with 0.5 mM GDP for ITC; also called Rab7 T22N; dominant negative Rab7; source: E. coli BL21(DE3), purified (Ni-NTA, SEC)
Described as above.

By Kd is commonly meant the equilibrium constant for the complex coming apart. A word on the stoichiometry N: it is the number of molecules, sites or subunits per partner or assembly.

T2 sequence (P51149 2-195 Q67L): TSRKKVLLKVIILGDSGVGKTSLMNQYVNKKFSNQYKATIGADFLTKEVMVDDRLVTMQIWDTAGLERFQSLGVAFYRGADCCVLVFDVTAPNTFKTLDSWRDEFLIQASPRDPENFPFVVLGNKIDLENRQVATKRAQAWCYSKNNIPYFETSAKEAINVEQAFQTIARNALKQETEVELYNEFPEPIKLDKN
T1 sequence (P51149 other isoform, or with tags, fused parts or gaps Q67L | Δ73 | Q67L | Δ73 | Q67L Q67L): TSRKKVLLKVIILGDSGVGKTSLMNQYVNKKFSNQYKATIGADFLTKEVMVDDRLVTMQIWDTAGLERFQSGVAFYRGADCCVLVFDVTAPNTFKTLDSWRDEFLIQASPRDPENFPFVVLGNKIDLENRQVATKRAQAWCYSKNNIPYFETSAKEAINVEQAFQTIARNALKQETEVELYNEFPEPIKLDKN
T3 sequence (P51149 2-195 T22N): as the sequence (P51149 2-195 Q67L) above, with T21N, L66Q counted along it

B1: human ORP1 ANK domain (residue 5-152) (domain or fragment, UniProt Q9BXW6-1 5-152, looked up)
chain: AEQQLLHHARNGNAEEVRQLLETMARNEVIADINCKGRSKSNLGWTPLHLACYFGHRQVVQDLLKAGAEVNVLNDMGDTPLHRAAFTGRKELVMLLLEYNADTTIVNGSGQTAKEVTHAEEIRSMLEAVERTQQRKLEELLLAAAREG
notes: The His tag was cut off with thrombin (site LVPR/GS); A longer ANK construct (5-233) was also cloned; also called small ORP1 ANK construct; source: E. coli BL21(DE3), purified (Ni-NTA, SEC); not shown: His6, N-terminal, cleaved
As to B1, the binding result in assay [1] is given as “binds”. In assay [2], binding was put at a Kd of 9.3 µM and the “stoichiometry N” value was 1. Moreover, the binding result in assay [3] is “binds”.

The values above are taken from article PMC6363164, “Structural basis of human ORP1-Rab7 interaction for the late-endosome and lysosome targeting” (PLoS ONE, 2019).
